The test system of experiment [1] is new small islets developing from non-endocrine tissue. As to conditions: cited from earlier work; for levels of new islet markers NGN3, NKX6.1, SOX9, and INS: five days after treatment; for increase in the volume of new small islets developing from non-endocrine tissue: in vivo.
The target in experiment [2] is T1, Reg Receptor (Homo sapiens, UniProt O43909).
T1 sequence (O43909 1-919): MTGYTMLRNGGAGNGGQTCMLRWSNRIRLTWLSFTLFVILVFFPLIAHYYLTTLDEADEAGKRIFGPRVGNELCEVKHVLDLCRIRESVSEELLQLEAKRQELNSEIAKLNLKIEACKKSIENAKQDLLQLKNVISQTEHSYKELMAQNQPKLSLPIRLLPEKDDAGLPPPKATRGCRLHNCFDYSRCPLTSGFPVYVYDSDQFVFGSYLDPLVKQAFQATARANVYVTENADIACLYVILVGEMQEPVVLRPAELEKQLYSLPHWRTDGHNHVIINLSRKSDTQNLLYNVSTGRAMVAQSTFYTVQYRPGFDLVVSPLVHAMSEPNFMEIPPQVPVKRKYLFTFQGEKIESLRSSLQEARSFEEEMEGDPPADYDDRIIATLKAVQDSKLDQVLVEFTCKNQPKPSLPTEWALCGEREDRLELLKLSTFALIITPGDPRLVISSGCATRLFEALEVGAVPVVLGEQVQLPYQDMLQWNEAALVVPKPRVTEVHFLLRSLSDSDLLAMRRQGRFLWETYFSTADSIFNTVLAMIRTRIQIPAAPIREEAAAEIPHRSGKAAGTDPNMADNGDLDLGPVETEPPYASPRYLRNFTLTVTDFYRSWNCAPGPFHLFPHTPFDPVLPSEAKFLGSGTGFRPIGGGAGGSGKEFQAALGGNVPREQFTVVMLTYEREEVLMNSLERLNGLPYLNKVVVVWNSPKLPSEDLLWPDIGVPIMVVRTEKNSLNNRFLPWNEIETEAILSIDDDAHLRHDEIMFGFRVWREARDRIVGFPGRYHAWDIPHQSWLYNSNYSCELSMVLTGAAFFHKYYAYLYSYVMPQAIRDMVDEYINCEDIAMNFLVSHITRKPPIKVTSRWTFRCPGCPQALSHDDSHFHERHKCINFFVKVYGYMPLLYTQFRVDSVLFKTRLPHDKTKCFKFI
In words: Direct binding of Perle peptides to purified Reg Receptor coated on 96 well plate (strep-HRP, absorbance at 405 nm). More on the design: FLAG; made in house; host or cells: 293T cells (transient transfection, harvested after 72 hours). As to conditions: FIG. 9; for strength of binding to the Reg Receptor relative to the other peptides tested: comparison among 7-, 8-, 9-amino acid Perle peptides, HIP and scrambled control; for direct binding to the Reg Receptor: purified Reg Receptor coated on plate, peptides bound 1 hour at room temperature, absorbance at 405 nm. The procedure: Cells were collected after 72 hours. The Reg Receptor was tagged with FLAG epitope and FLAG resin was utilized to purify out the Reg Receptor. […] The Reg Receptor was purified by Anti-Flag M2 affinity gel. Target protein was confirmed by 4-12% SDS-PAGE and Western-blot. […] FIGS. 7b and 7c are the Western blot results showing that the purified protein is the Reg Receptor using the antibody to the Reg Receptor (CD104). The Reg Receptor is shown In FIG. 7 to be highly purified.
Plates were coated overnight coated plate and washed three times with 0.5×TBST and blocked with 3% BSA and rotated at room temperature for 1 hour. After blocking, plates were washed three times with 0.5×TBST. Peptides were then diluted with TBST buffer and added into wells in duplicate then left to bind at room temperature for 1 hour. After washing three times, 100 ng/ml strep-HRP was added into plate at 100 ul/well, and rotated at room temperature for one hour. ABST reagents were warmed to room temperature, mixed immediately before using. Then 100 ul was added to each well and read after 25 minutes reaction and absorbance was evaluated at 405 nm by a Spectramax M5 plate reader. The purified Reg Receptor was coated on plates. Then plates were blocked with BSA solution. Subsequently, the Perle peptides were added into the wells, and HRP-straptavidin and its substrates were added into the wells to reveal the interaction between Receptor and the Perle peptide.

For experiment [3] the following is noted: cited from earlier work.
The target of experiment [4] is 20 amino acid Reg Receptor sequence (SEQ ID NO:9) (amino acids 117-136) (Homo sapiens, UniProt O43909). In words: Enzyme ImmunoAssay titers of polyclonal antibodies raised to the 20-amino acid Reg Receptor sequence. Format: binding. As to conditions: reference range of FIG. 13; bleed after day 0 and day 21 boosts. The procedure: FIGS. 11-13 were from studies undertaken to develop stimulatory antibodies to the Reg Receptor to accelerate the progression of beta cell formation by stimulating potential binding sites on the Reg Receptor. For the production of […] antibodies, many sequences were evaluated within the N-terminal portion of Reg receptor (amino acids 1-332) (SEQ ID NO:13), which is the amino acid region believed to be the binding domain for the Reg peptides within the Reg receptor that is not contained in the other members of the of Exostoses family, and thus is hypothesized to be the Reg binding domain.
Data sets were taken from the bleed after the day 0 and day 21 boosts. The animals were injected with a peptide of SEQ ID NO: 9 and were conjugated to keyhole limpet hemocyanin (KLH). […] At a dilution of 1:750,000, the absorbance fell within a range of 0.45 to 0.9. […]
Previous studies have identified that Reg proteins and peptides act through a 919-amino acid cell-surface protein. […] For the production of stimulatory antibodies, sequences were evaluated within the N-terminal portion of the putative Reg Receptor (amino acids 1-332) (SEQ ID NO:13), which is the amino acid region of Reg Receptor that is not contained in the other members of the of Exostoses family, and thus is hypothesized to be the Reg binding domain.

For experiment [5], the target named is T1, Reg Receptor. Nature of the experiment: Western blot analysis of Reg Receptor translocation from cytoplasmic membrane to nucleus in human extra-islet ductal cells. Format: cell-based. To be noted: Perle peptide 167 nM once a day for four days, cytosolic and nuclear fractions, shorter and longer exposure times. The procedure:
Western blot analysis identified the presence of the Reg receptor on the cytoplasmic membrane and the movement of the Reg Receptor from the cytoplasmic membrane through the cytoplasm to the nucleus in the presence of the Perle peptides. Cytoplasmic extracts were obtained in 10 mM HEPES (pH 8.0), 1 mM EDTA, 1.5 mM MgCl2, 10 mM KCl, 0.5 mM DTT, 200 mM sucrose and 0.5% Nonidet P-40. Nuclear extracts were obtained in 20 mM HEPES (pH 7.9), 0.75 mM MgCl2, 210 mM NaCl, 50 mM KCl, 1 mM EDTA, 10% glycerol, and 0.5 mM DTT. Both extraction buffers contained 0.5 mM PMSF, 1 μg/ml leupeptin, 1 μg/ml aprotinin, 2.5 mM Na4P2O7, 1 mM β-glycerophosphate, and 1 mM Na3VO4. […] Secondary signals were developed with chemiluminescence substrate and analyzed by autoradiography. […]
Human extra-islet ductal cells were seeded in T75 flasks in Dulbecco's Modified Eagle media containing 10% fetal bovine serum. […] In these cell extracts the total protein levels were determined, and 50 micrograms of total protein were used to perform the western blot analysis. […]
Analyses were performed from cytoplasmic extracts were obtained in 10 mM HEPES (pH 8.0), 1 mM EDTA, 1.5 mM MgCl2, 10 mM KCl, 0.5 mM DTT, 200 mM sucrose and 0.5% Nonidet P-40. […] Secondary signals were developed with chemiluminescence substrate and analyzed by autoradiography. […]

As for “HIP: 14-amino Reg 3a peptide sequence (Human Proislet Peptide), prior art (IGLHDPTQGTEPNG; listed as Homo sapiens) [reference compound]”, in experiment [1], the “levels of new islet markers NGN3, NKX6.1, SOX9, and INS” value is “increased levels”; the “increase in the volume of new small islets developing from non-endocrine tissue” value is reported as 2 fold. For the same substance, in experiment [2], the “strength of binding to the Reg Receptor relative to the other peptides tested” value is on record as “same level of binding as the scrambled peptide” and the “direct binding to the Reg Receptor” value is “no direct binding”.

As to “INGAP: 15-amino acid peptide within the hamster Reg3gamma peptide sequence, prior art (IGLHDPSHGTLPNGS; listed as Mesocricetus auratus)”, in experiment [1], the “levels of new islet markers NGN3, NKX6.1, SOX9, and INS” value is “increased levels”; the “increase in the volume of new small islets developing from non-endocrine tissue” value was 2 fold. Also, the “rise in stimulated C-peptide” value in experiment [3] (human type 1 patients, by day 56, p<0.001) is reported as 27%. Further, the “increase in stimulated C-peptide” value in experiment [3] (type 1 patients, p=0.0057) is 27%.

Consider “NVWIGLHDP (listed as Homo sapiens) [SEQ. ID NO. 1, 9-amino acid Perle peptide within human Reg1a and Reg1b]”, for which the “direct binding to the Reg Receptor” value is given as “demonstrated binding” in experiment [2] and “bind directly” in experiment [2] (listed as 9-amino acid Perle peptide).

In the case of “SEQ ID NO: 9: 20-amino acid binding site within the human Reg receptor (amino acids 117-136), used as immunogen (CKKSIENAKQDLLQLKNVIS; listed as Homo sapiens)”, in experiment [4], the “response to the antigen according to the polyclonal titer reference range” value is listed as “high response”.

For “VWIGLHDP (listed as Homo sapiens) [SEQ. ID NO. 4, 8-amino acid Perle peptide within human Reg1a, Reg1b and Reg3a]”, the “translocation of the Reg Receptor from the cytoplasm to the nucleus” value in experiment [5] (listed as 8-amino acid Perle peptide) was “greatest ability”; in experiment [5] (listed as 8-amino-acid Perle Peptide), “greatest impact”. Moreover, the “strength of binding to the Reg Receptor relative to the other peptides tested” value in experiment [2] is given as “greatest binding”; in experiment [2] (listed as 8-amino acid peptide), “strongest in binding”. The “direct binding to the Reg Receptor” value in experiment [2] is “bind directly”.

Turning to “WIGLHDP (listed as Homo sapiens) [SEQ. ID NO. 7, 7-amino acid Perle peptide within human Reg1a, Reg1b, Reg3a and Reg4]”, the entries for the “direct binding to the Reg Receptor” value in experiment [2] and in experiment [2] (listed as 7-amino acid Perle peptide) were “demonstrated binding” and “bind directly”, respectively.

(Values after patent US9133440B2, “Generation of new pancreatic beta cells” (priority 2012, dated 2015).)
